Test results from patent publication US20260234252A1 (published 2026).
“And” between values parts separate entries of the source, which are not always exact repeats. Equal entries are not always repeated. Where two headings read alike, the source gives them in different places.

B1: VB13 (Vβ17×Null) bispecific antibody (bispecific antibody)
heavy 1: QVQLQESGPGLVKPSETLSLTCTVSGYSITSGYFWNWIRQPPGKGLEWIGYISYDGSNNYNPSLKSRVTISRDTSKNQFSLKLSSVTAADTAVYYCASPSPGTGYAVDYWGQGTLVTVSSASTKGPSVFPLAPCSRSTSESTAALGCLVKDYFPEPVTVSWNSGALTSGVHTFPAVLQSSGLYSLSSVVTVPSSSLGTKTYTCNVDHKPSNTKVDKRVESKYGPPCPPCPAPEAAGGPSVFLFPPKPKDTLMISRTPEVTCVVVDVSQEDPEVQFNWYVDGVEVHNAKTKPREEQFNSTYRVVSVLTVLHQDWLNGKEYKCKVSNKGLPSSIEKTISKAKGQPREPQVYTLPPSQEEMTKNQVSLSCAVKGFYPSDIAVEWESNGQPENNYKTTPPVLDSDGSFFLVSRLTVDKSRWQEGNVFSCSVMHEALHNRFTQKSLSLSLGK
light 1: DIQMTQSPSSLSASVGDRVTITCRSSQSLVHSNGNTYLHWYQQKPGKAPKFLIYKVSNRFSGVPSRFSGSGSGTDFTLTISSLQPEDFATYYCSQSTHVPFTFGQGTKLEIKRTVAAPSVFIFPPSDEQLKSGTASVVCLLNNFYPREAKVQWKVDNALQSGNSQESVTEQDSKDSTYSLSSTLTLSKADYEKHKVYACEVTHQGLSSPVTKSFNRGEC
heavy 2: not shown
light 2: not shown
B2: VB11 (anti-Vβ17/anti-CD123) bispecific antibody (bispecific antibody)
heavy 1: QVQLQESGPGLVKPSETLSLTCTVSGYSITSGYFWNWIRQPPGKGLEWIGYISYDGSNNYNPSLKSRVTISRDTSKNQFSLKLSSVTAADTAVYYCASPSPGTGYAVDYWGQGTLVTVSSASTKGPSVFPLAPCSRSTSESTAALGCLVKDYFPEPVTVSWNSGALTSGVHTFPAVLQSSGLYSLSSVVTVPSSSLGTKTYTCNVDHKPSNTKVDKRVESKYGPPCPPCPAPEAAGGPSVFLFPPKPKDTLMISRTPEVTCVVVDVSQEDPEVQFNWYVDGVEVHNAKTKPREEQFNSTYRVVSVLTVLHQDWLNGKEYKCKVSNKGLPSSIEKTISKAKGQPREPQVYTLPPSQEEMTKNQVSLSCAVKGFYPSDIAVEWESNGQPENNYKTTPPVLDSDGSFFLVSRLTVDKSRWQEGNVFSCSVMHEALHNRFTQKSLSLSLGK
light 1: DIQMTQSPSSLSASVGDRVTITCRSSQSLVHSNGNTYLHWYQQKPGKAPKFLIYKVSNRFSGVPSRFSGSGSGTDFTLTISSLQPEDFATYYCSQSTHVPFTFGQGTKLEIKRTVAAPSVFIFPPSDEQLKSGTASVVCLLNNFYPREAKVQWKVDNALQSGNSQESVTEQDSKDSTYSLSSTLTLSKADYEKHKVYACEVTHQGLSSPVTKSFNRGEC
heavy 2: EVQLVQSGAEVKKPGESLKISCKGSGYSFTSYWISWVRQMPGKGLEWMGIIDPSDSDTRYSPSFQGQVTISADKSISTAYLQWSSLKASDTAMYYCARGDGSTDLDYWGQGTLVTVSSASTKGPSVFPLAPCSRSTSESTAALGCLVKDYFPEPVTVSWNSGALTSGVHTFPAVLQSSGLYSLSSVVTVPSSSLGTKTYTCNVDHKPSNTKVDKRVESKYGPPCPPCPAPEAAGGPSVFLFPPKPKDTLMISRTPEVTCVVVDVSQEDPEVQFNWYVDGVEVHNAKTKPREEQFNSTYRVVSVLTVLHQDWLNGKEYKCKVSNKGLPSSIEKTISKAKGQPREPQVYTLPPSQEEMTKNQVSLWCLVKGFYPSDIAVEWESNGQPENNYKTTPPVLDSDGSFFLYSRLTVDKSRWQEGNVFSCSVMHEALHNHYTQKSLSLSLGK
light 2: EIVLTQSPGTLSLSPGERATLSCRASQSVSSSYLAWYQQKPGQAPRLLIYGASSRATGIPDRFSGSGSGTDFTLTISRLEPEDFAVYYCQQDYGFPWTFGQGTKVEIKRTVAAPSVFIFPPSDEQLKSGTASVVCLLNNFYPREAKVQWKVDNALQSGNSQESVTEQDSKDSTYSLSSTLTLSKADYEKHKVYACEVTHQGLSSPVTKSFNRGEC

How the values were obtained:
[1] = target: T1, Vβ17 on human CD8+ T cells (human); assay: FACS
T1 chain: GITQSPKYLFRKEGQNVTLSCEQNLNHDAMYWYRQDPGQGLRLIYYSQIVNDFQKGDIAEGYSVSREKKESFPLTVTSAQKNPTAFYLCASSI

[2] = target: T1, Vβ17 on human CD8+ T cells; assay: FACS

Row | Binder | EC50 [1] [nM] | EC50 [2]
1 | B1 | 12.6 | 1.4 nM and 1.5 nM
2 | B2 |  | 0.8 nM and 1.26 nM
